{
  "source": "paper doi:10.1101/2020.04.13.039982",
  "about": "(bioRxiv, 2020)",
  "binders": {"B1": {"name": "peptide encompassing the C-terminus of Tub1 (amino acids 415-447), wild-type (peptide)", "peptide": "not shown"}},
  "molecular_target": "T1, 6His-She1 C-terminal fragment (residues 194 to 338) (S. cerevisiae, UniProt P38200 194-338)",
  "T1 sequence (looked up)": "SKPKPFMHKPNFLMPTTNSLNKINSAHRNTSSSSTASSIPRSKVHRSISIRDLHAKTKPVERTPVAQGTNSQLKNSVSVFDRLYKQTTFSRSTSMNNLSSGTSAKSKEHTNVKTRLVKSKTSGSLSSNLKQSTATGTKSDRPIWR",
  "assay": "pull-down",
  "data": [
    {"binder": "B1", "values": [
      {"measurement": "binding result", "value": "binds"}
    ]}
  ]
}
